Data: publication PMC13598245
Each block holds one substance with its values, some of them ahead of it.

Assays:
[1] = target: MAST1^DK ΔS90 ΔS161 (Mus musculus); experiment: FP
[2] = target: 14-3-3η (endogenous) (UniProt Q04917); experiment: GFP-Trap affinity purification, mass spectrometry; conditions: sites S90
[3] = target: 14-3-3η (purified, recombinant) (UniProt Q04917); experiment: cross-linking + other: mass photometry; complex stabilised by glutaraldehyde cross-linking, then mass photometry (25 to 50 nM, 50 mM HEPES pH 7.4, 150 mM NaCl, 1 mM TCEP)
[4] = target: 14-3-3η (purified, recombinant) (UniProt Q04917); experiment: SEC; complex formed in vitro: equimolar MAST1^D p-S90 and 14-3-3η, 30 min at room temperature, then analytical SEC (Superdex 200 Increase 3.2/300, 50 mM HEPES pH 7.4, 150 mM NaCl, 1 mM TCEP, 4 °C; 50 μL of 30 μM); Coomassie SDS-PAGE of fractions with gel densitometry
[5] = target: 14-3-3η (purified recombinant) (UniProt P68510); experiment: fluorescence anisotropy, FITC peptide; conditions: reference: unphosphorylated peptide …
[6] = target: GST-tagged 14-3-3η (coexpressed with MAST1^DK) (UniProt Q04917); experiment: cross-linking + other: mass photometry; complex stabilised by glutaraldehyde cross-linking, then mass photometry (25 to 50 nM, 50 mM HEPES pH 7.4, 150 mM NaCl, 1 mM TCEP)
[7] = target: GST-tagged 14-3-3η (coexpressed with MAST1^DK) (UniProt Q04917); experiment: SEC; complex coexpressed in Sf9, affinity-purified by the GST tag of 14-3-3η, then analytical SEC (Superdex 200 Increase 3.2/300, 50 mM HEPES pH 7.4, 150 mM NaCl, 1 mM TCEP, 4 °C); Coomassie SDS-PAGE of fractions with gel densitometry

14-3-3η (purified, recombinant), sequence (Q04917 whole entry): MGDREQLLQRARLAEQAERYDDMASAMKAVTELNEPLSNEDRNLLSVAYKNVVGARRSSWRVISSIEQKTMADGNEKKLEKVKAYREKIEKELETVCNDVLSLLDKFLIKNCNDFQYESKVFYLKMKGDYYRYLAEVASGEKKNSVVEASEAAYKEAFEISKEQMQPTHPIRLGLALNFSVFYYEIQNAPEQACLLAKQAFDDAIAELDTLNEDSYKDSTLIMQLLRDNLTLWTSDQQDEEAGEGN
GST-tagged 14-3-3η (coexpressed with MAST1^DK), sequence (Q04917 whole entry): as above
MAST1^DK ΔS90 ΔS161 (Mus musculus), sequence (Q9R1L5 whole entry S90del/S161del): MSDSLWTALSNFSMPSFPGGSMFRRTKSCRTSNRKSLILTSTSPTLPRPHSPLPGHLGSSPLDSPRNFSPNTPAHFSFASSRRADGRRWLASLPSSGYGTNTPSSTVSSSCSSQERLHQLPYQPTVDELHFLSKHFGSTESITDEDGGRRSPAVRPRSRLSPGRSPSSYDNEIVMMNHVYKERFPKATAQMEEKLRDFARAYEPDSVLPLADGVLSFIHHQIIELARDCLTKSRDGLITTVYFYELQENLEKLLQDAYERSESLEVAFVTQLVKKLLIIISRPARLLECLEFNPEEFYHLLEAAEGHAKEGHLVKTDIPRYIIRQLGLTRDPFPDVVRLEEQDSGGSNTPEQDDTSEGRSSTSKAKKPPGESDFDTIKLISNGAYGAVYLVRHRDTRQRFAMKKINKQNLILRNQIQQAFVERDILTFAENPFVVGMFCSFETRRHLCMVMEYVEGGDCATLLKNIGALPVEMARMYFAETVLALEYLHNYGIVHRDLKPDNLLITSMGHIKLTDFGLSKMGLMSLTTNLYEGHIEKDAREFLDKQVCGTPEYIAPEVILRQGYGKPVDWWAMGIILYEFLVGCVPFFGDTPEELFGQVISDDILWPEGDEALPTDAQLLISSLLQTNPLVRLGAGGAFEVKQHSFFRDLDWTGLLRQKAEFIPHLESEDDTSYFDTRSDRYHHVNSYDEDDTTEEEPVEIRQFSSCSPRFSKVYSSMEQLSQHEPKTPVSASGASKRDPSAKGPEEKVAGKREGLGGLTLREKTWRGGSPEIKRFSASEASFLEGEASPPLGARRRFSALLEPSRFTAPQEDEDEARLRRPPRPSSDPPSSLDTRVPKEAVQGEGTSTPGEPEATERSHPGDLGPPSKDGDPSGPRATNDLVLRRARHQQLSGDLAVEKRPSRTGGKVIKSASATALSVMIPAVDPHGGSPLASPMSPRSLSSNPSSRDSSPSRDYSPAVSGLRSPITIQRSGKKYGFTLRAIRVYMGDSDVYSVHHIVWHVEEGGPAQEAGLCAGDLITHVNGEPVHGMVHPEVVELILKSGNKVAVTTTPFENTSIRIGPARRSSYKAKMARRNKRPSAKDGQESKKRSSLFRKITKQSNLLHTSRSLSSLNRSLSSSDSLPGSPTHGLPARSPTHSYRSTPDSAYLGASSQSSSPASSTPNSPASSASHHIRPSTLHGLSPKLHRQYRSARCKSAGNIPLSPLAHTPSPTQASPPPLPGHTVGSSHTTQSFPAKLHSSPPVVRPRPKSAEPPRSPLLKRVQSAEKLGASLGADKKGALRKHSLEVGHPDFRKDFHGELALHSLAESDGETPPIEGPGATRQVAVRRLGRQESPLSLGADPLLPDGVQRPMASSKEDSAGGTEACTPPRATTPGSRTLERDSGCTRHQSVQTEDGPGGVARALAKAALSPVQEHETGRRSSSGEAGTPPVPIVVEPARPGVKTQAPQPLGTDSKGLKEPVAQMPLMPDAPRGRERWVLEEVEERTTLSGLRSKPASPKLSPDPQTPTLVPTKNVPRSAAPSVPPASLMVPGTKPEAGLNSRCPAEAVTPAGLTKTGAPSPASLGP

- Kd [1]: 1170 µM
Substance: MAST1^153-166 WT

- binding against the reference ([2]; reference: S161A single mutant (S90 intact)): weaker
Substance: MAST1 MAST1DKP (from UniProt Q9R1L5) S90A S161A

- stoichiometry N (MAST1:14-3-3η) [3]: 0.5
- stoichiometry N (MAST1:14-3-3η) [4]: 0.5
Substance: MAST1^D p-S90 (from UniProt Q9R1L5 1-1570) (domain or fragment)

- binding against the reference ([5]; sites S90): gained
Substance: MAST1 85-97 (from UniProt Q9R1L5) p-S90 peptide

- binding against the reference ([5]; sites S161): gained
Substance: MAST1 156-168 (from UniProt Q9R1L5) p-S161 peptide

- stoichiometry N (MAST1:14-3-3η) [6]: 0.5
- stoichiometry N (MAST1:14-3-3η) [7]: 0.5
Substance: MAST1^DK (copurified with 14-3-3η) (from UniProt Q9R1L5 1-1570) (domain or fragment)

- binding against the reference ([2]; reference: wild type): weaker
Substance: MAST1 MAST1DKP (from UniProt Q9R1L5) S90A
